# Data reported in paper PMC4775355 (Cancer research, 2016).
# B1: Flag-PKM2 Y148F mutant (PKM2^Y148F) (enzyme)
# chain: not shown
# Molecular target: the molecule itself
# Assay: cross-linking
protein,measurement,value
B1,stoichiometry N,4
